Source: publication PMC4569726

Experiments:
[1] = molecular target: RSV F single-chain double mutant with fibritin trimerization domain (SC-DM: N67I, S215P) (respiratory syncytial virus strain A2 (subgroup A) | not stated); experiment: SEC-MALS + native gel or EMSA; purified protein; SEC-MALS: 40 μg on TSK-Gel G3000SWxl in 150 mM NaPi, 50 mM NaCl, pH 7.0; NativePAGE Bis-Tris gel
[2] = molecular target: RSV F single-chain triple mutant with fibritin trimerization domain (SC-TM: N67I, S215P, E487Q) (respiratory syncytial virus strain A2 (subgroup A) | not stated); experiment: as above
[3] = molecular target: Soluble, stabilized processed RSV F variant with fibritin motif (PR-TM: N67I, S215P, D486N) (respiratory syncytial virus strain A2 (subgroup A) | not stated); experiment: SDS-PAGE without reducing agents and without boiling, Western blot; samples treated with standard 0.1% SDS buffer at room temperature

Question: Which stoichiometry N [1] does the source give for “RSV F single-chain double mutant with fibritin trimerization domain (SC-DM: N67I, S215P) (domain or fragment)” here?
Answer: 3

Question: With “RSV F single-chain triple mutant with fibritin trimerization domain (SC-TM: N67I, S215P, E487Q) (domain or fragment)” as the substance, how does the stoichiometry N [2] read?
Answer: 3

Question: “Soluble, stabilized processed RSV F variant with fibritin motif (PR-TM: N67I, S215P, D486N) (domain or fragment)” was tested. Which percent monomerized by 0.1% SDS [3] did it give?
Answer: 50%
